According to publication PMC5812274 (Science signaling, 2017):

Molecular target: large-conductance Ca2+-activated potassium (BK) channel pore-forming α subunit (rat (endogenous in cerebral artery …, UniProt Q62976 1-1209))
Test: FRET or BRET

large-conductance Ca2+-activated potassium (BK) channel pore-forming α subunit (rat, sequence (Q62976 whole entry): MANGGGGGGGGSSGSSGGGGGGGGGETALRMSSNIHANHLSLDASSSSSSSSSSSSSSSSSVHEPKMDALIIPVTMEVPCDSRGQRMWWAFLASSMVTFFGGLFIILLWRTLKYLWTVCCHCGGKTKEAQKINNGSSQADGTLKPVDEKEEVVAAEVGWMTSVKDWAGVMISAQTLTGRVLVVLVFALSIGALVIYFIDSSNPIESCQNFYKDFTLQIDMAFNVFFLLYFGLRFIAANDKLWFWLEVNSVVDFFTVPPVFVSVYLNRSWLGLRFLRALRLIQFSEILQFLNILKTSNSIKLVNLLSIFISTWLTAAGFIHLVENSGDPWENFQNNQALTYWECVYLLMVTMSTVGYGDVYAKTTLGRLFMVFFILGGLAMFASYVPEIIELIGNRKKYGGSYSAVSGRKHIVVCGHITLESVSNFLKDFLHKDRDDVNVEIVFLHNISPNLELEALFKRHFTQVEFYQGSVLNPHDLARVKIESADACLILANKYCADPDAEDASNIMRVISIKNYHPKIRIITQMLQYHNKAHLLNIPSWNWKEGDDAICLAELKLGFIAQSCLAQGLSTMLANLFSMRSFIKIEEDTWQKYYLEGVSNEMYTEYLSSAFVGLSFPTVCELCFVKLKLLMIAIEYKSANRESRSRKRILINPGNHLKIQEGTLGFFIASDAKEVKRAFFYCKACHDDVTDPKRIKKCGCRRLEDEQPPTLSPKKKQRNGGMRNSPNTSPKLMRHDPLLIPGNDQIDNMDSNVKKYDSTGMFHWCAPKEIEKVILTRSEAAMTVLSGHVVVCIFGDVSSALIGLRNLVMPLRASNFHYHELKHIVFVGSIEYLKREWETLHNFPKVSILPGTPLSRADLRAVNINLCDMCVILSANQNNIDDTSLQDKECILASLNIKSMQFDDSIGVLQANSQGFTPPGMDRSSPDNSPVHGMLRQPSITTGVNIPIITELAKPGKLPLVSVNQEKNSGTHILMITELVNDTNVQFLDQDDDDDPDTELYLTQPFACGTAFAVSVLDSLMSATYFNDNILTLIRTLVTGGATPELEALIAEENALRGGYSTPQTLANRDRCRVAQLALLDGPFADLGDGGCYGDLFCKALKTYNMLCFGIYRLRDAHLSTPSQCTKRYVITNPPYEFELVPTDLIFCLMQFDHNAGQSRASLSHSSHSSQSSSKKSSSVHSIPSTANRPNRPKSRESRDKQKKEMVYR

fold increase of normalized FRET, 60 mM K+ against 6 mM K+: ~3.4 fold
B1: BK channel auxiliary β1 subunit (natural protein, UniProt P97678 1-191, looked up)
chain: MGKKLVMAQKRGETRALCLGVAMVVCAAITYYILGTTVLPLYQKSVWTQESTCHLVETNIKDQEELEGRKVPQYPCLWVNVSAVGRWAMLYHTEDTRDQNQQCSYIPRNLDNYQTALVDVKKVRANFYKHHNFYCFSAPQVNETSVVYQRLYGPQILLFSFFWPTFLLTGGLLIIAMVKLNRSLSVLAAQK
